Test results from patent US20190338048A1.
Like-named read-outs stand apart in the source and are kept apart here. One block for each substance: values may come before it.

Legend:
[1] = molecular target: Pertuzumab kappa light chain S131R_V133T_L135K_T178S; assay: LCCA, SPR
[2] = molecular target: CAT-2200 lambda light chain V133D_Y178T; assay: LCCA, SPR
[3] = molecular target: Pertuzumab kappa light chain S176K_T178R; assay: LCCA, SPR
[4] = molecular target: Pertuzumab kappa light chain S176K_T178K; assay: LCCA, SPR
[5] = molecular target: Pertuzumab kappa light chain Q124R_Q160K_T178R (L2), HA-tagged; assay: LCCA, SPR of light-chain tags
[6] = molecular target: Pertuzumab kappa light chain Q124R_T178R (L2), HA-tagged; assay: LCCA, SPR of light-chain tags
[7] = molecular target: Pertuzumab kappa light chain Q124R_Q160K_T178R (L2), HA-tagged; assay: LCCA, SPR of light-chain tags; remark: listed apart in the source
[8] = molecular target: Pertuzumab kappa light chain Q124R_T178R (L2), HA-tagged; assay: LCCA, SPR of light-chain tags; remark: listed apart in the source
[9] = molecular target: CAT-2200 lambda light chain K129T_V133D; assay: LCCA, SPR
[10] = molecular target: Pertuzumab kappa light chain Q124K_V133A_T178R; assay: LCCA, SPR
[11] = molecular target: CAT-2200 lambda light chain E124Q_T131R; assay: LCCA, SPR
[12] = molecular target: CAT-2200 lambda light chain E124Q_T131K; assay: LCCA, SPR
[13] = molecular target: CAT-2200 lambda light chain E124Q_T131R; assay: LCCA, SPR; remark: listed apart in the source
[14] = molecular target: CAT-2200 lambda light chain E124Q_T131R; assay: LCCA, SPR; remark: listed apart in the source
[15] = molecular target: CAT-2200 lambda light chain E124Q_T131K; assay: LCCA, SPR; remark: listed apart in the source
[16] = molecular target: CAT-2200 lambda light chain V133D_Y178T; assay: LCCA, SPR; remark: listed apart in the source
[17] = molecular target: CAT-2200 lambda light chain T131S_V133D_Y178T; assay: LCCA, SPR
[18] = molecular target: CAT-2200 lambda light chain V133D_Y178T; assay: LCCA, SPR; remark: listed apart in the source

Substance: Pertuzumab Fab heavy chain L124E_L143E_K145T
H2L2:H2L1 normalized median scalar value ln(r1/f1) [1]: 0.62

Substance: Pertuzumab Fab heavy chain K145T_V177D_S188D
H2L2:H2L1 normalized median ratio [2]: 16%
H2L2:H2L1 normalized median scalar value ln(r1/f1) [3]: 1.5
H2L2:H2L1 normalized median ratio [4]: 84%
H2L2:H2L1 normalized median scalar value ln(r1/f1) [4]: 1.68

Substance: Pertuzumab Fab heavy chain L143E_K145T_Q179E (H2)
H2L2:H2L1 normalized median scalar value ln(r1/f1) [5]: 2.62
H2L2:H2L1 normalized median scalar value ln(r1/f1) [6]: 2.22
H2L2:H2L1 normalized median scalar value ln(r1/f1) [7]: 3.21
H2L2:H2L1 normalized median scalar value ln(r1/f1) [8]: 3.16

Substance: CAT-2200 Fab heavy chain S186K_S188T
H1L1:H1L2 normalized median scalar value ln(r1/f1) [16]: 0.54
H1L1:H1L2 normalized median scalar value ln(r1/f1) [17]: -0.34
H1L1:H1L2 normalized median scalar value ln(r1/f1) [2]: 0.91
H1L1:H1L2 normalized median scalar value ln(r1/f1) [18]: 1.84

Further lines, results first:

H2L2:H2L1 normalized median ratio [9]: 8%
H2L2:H2L1 normalized median ratio [10]: 92%
H2L2:H2L1 normalized median scalar value ln(r1/f1) [10]: 2.51
Substance: Pertuzumab Fab heavy chain L124W_L143E_K145T_Q179E

H1L1:H1L2 normalized median scalar value ln(r1/f1) [11]: 2.87
H1L1:H1L2 normalized median scalar value ln(r1/f1) [12]: 3.04
H1L1:H1L2 normalized median scalar value ln(r1/f1) [13]: 1.65
H1L1:H1L2 normalized median scalar value ln(r1/f1) [14]: 0.28
H1L1:H1L2 normalized median scalar value ln(r1/f1) [15]: -0.04
Substance: CAT-2200 Fab heavy chain L143E_K145T_Q179E
